Reference: patent US20220281998A1 (AZUSAPHARMA SCIENCES, published 2022)
Residue numbers refer to the chain shown, from its start.

Key:
[1] = biological target: human EGFR on human cancer cell lines (HCT116, A-431, NCI-H1975, HT-29, RKO) (human, UniProt P00533 25-1210); assay: cell-based or functional assay
[2] = biological target: T1, human CD3E/CD3D heterodimer recombinant protein (manufactured by ACROBiosystems) (human, UniProt P07766 23-126; P04234 22-105); assay: sandwich ELISA: immobilised human CD3E/CD3D heterodimer, BsAb, biotinylated human EGFR
T1 construct: Bought reagent, immobilised on ELISA plates

[3] = biological target: T2, human EpCAM on HCT116 cells (EpCAM-positive human colon cancer cell line) (human, UniProt P16422 24-314); assay: cell-based or functional assay
T2 sequence (looked up): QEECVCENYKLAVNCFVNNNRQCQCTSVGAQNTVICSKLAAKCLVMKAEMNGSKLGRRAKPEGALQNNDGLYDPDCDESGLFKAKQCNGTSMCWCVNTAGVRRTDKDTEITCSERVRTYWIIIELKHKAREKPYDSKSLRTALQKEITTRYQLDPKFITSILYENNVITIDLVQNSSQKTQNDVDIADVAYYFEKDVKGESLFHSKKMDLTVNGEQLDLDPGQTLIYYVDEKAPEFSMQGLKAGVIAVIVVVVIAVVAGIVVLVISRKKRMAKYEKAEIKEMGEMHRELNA

[4] = biological target: T1, human CD3E/CD3D heterodimer recombinant …; assay: sandwich ELISA: immobilised human CD3E/CD3D heterodimer, BsAb, biotinylated EpCAM
Method: 25 μL of a solution containing 2.5 μg/mL human CD3E/CD3D heterodimer recombinant protein (available from ACROBiosystems) was dispensed into each well of a 96-well plate, followed by standing overnight at 4° C. for immobilization. The solution after immobilization was removed, and each well was washed with 200 μL of PBS-T 3 times. Thereafter, 200 μL of a blocking solution (Blocking One, manufactured by NACALAI TESQUE, INC.) diluted 5-fold with distilled water was dispensed, followed by standing at 25° C. for 2 hours for blocking treatment. The blocking solution in each well was removed, and the well was washed with 200 μL of PBS-T 3 times. 100 (ng/mL) or 1000 (ng/mL) EpCAM×CD3 diabody-type BsAb and 100 (ng/mL) or 1000 (ng/mL) EGFR×CD3 diabody-type BsAb as a negative control were each diluted 50-fold with a signal enhancer HIKARI A solution (manufactured by NACALAI TESQUE, INC.) containing 1% BSA, and 25 μL of each solution was dispensed into each well after blocking, followed by standing at 25° C. for 2 hours for reaction treatment between the antibody (EpCAM×CD3 diabody-type BsAb) and the antigen (immobilized human CD3E/CD3D heterodimer recombinant protein). Thereafter, the solution in each well was removed, and the well was washed with 200 μL of PBS-T 3 times.

[5] = biological target: human PSMA on 22Rv1 cells (PSMA-positive human prostate cancer cell line) (human, UniProt Q04609 1-750); assay: cell-based or functional assay
[6] = biological target: T1, human CD3E/CD3D heterodimer recombinant …; assay: sandwich ELISA: immobilised human CD3E/CD3D heterodimer, BsAb, biotinylated HER2
[7] = biological target: recombinant biotinylated human EGFR (manufactured by ACROBiosystems) (human, UniProt P00533 25-645, biotinylated (site not stated)); assay: sandwich ELISA: immobilised human CD3E/CD3D heterodimer, BsAb, detection with biotinylated human EGFR

T1 sequence (P07766 23-126 limits assumed, chain 1 of 2): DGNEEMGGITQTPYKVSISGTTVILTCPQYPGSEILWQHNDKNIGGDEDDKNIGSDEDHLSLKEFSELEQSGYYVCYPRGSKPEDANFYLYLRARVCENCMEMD
T1 sequence (P04234 22-105 limits assumed, chain 2 of 2): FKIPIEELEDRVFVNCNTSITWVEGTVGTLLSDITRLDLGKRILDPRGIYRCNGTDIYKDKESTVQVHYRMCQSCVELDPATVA
human PSMA on 22Rv1 cells (PSMA-positive human prostate cancer cell line), sequence (Q04609 whole entry): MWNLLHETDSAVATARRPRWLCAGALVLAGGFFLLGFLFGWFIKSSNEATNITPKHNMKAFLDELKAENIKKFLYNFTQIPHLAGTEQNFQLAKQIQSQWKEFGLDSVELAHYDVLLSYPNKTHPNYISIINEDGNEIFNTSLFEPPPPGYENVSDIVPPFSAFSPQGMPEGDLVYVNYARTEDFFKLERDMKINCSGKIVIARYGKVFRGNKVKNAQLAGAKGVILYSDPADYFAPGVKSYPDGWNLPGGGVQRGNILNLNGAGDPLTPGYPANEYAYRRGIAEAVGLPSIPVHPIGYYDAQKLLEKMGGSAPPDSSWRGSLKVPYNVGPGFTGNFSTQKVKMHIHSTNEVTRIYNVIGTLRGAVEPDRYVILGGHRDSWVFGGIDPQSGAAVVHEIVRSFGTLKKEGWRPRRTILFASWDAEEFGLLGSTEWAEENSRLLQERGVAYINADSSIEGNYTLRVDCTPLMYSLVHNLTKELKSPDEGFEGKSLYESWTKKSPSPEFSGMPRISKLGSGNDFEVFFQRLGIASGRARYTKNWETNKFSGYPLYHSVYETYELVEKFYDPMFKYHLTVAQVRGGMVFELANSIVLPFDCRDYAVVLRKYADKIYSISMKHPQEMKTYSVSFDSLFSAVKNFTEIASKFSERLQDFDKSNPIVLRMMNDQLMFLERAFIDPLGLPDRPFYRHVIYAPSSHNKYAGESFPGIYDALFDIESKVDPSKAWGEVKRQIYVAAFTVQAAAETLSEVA

B1: LH9 diabody-type BsAb (EGFR×CD3 diabody-type BsAb derived from FLM-9H strain) (bispecific antibody)
chain 1: ATLTPDIVLTQSPATLSLSPGERATLSCRASQSVSYMNWYQQKPGKAPKRWIYDTSKVASGVPARFSGSGSGTDYSLTINSLEAEDAATYYCQQWSSNPLTFGGGTKVEIKAAGGGGSQVQLQESGPGLVKPSQTLSLTCTVSGGSISSGDYYWSWIRQPPGKGLEWIGYIYYSGSTDYNPSLKSRVTMSVDTSKNQFSLKVNSVTAADTAVYYCARVSIFGVGTFDYWGQGTLVTVSSAAAAEQKLISEEDLNLGGGMRGSHHHHHH
chain 2: ATLTPDIVMTQSPATLSLSPGERATLSCRASQSVSSYLAWYQQKPGQAPRLLIYDASNRATGIPARFSGSGSGTDFTLTISSLEPEDFAVYYCHQYGSTPLTFGGGTKAEIKAAGGGGSDVQLVQSGAEVKKPGASVKVSCKASGYTFTRYTMHWVRQAPGQGLEWIGYINPSRGYTNYADSVKGRFTITTDKSTSTAYMELSSLRSEDTATYYCARYYDDHYCLDYWGQGTTVTVSSAAAEQKLISEEDLNLGGGMRGSHHHHHH
Q: For B1, which “EC50: concentration that reduced the viability of HCT116 cells to 50% (T-LAK:HCT116 5:1, 24 h)” value [1] is on record?
A: 0.0022 nM

B2: LH22 diabody-type BsAb (EGFR×CD3 diabody-type BsAb derived from FOM-22H strain) (bispecific antibody)
chain 1: ATLTPDIQMTQSPSSLSASVGDRVTITCSASSSVSYMNWYQQTPGKAPKRWIYDTSKLASGVPSRFSGSGSGTDYTFTISSLQPEDIATYYCQQWSSNPFTFGQGTKLQITAAGGGGSQVQLQESGPGLVKPSQTLSLTCTVSGGSISSGDYYWSWIRQPPGKGLEWIGYIYYSGSTDYNPSLKSRVTMSVDTSKNQFSLKVNSVTAADTAVYYCARVSIFGVGTFDYWGQGTLVTVSSAAAEQKLISEEDLNLGGGMRGSHHHHHH
chain 2: ATLTPDIVMTQSPATLSLSPGERATLSCRASQSVSSYLAWYQQKPGQAPRLLIYDASNRATGIPARFSGSGSGTDFTLTISSLEPEDFAVYYCHQYGSTPLTFGGGTKAEIKAAGGGGSQVQLVQSGGGVVQPGRSLRLSCKASGYTFTRYTMHWVRQAPGKGLEWIGYINPSRGYTNYNQKVKDRFTISRDNSKNTAFLQMDSLRPEDTGVYFCARYYDDHYSLDYWGQGTPVTVSSAAAEQKLISEEDLNLGGGMRGSHHHHHH
Q: How did the “EC50: concentration that reduced the viability of HCT116 cells to 50% (T-LAK:HCT116 5:1, 24 h)” value [1] turn out when B2 was run?
A: 0.00025 nM

B3: LH31 diabody-type BsAb (EGFR×CD3 diabody-type BsAb derived from DUM-126H strain) (bispecific antibody)
chain 1: ATDIQMTQSPSSLSASVGDRVTITCRASQDIRNYLNWYQQKPGKAPKLLIYYTSRLESGVPSRFSGSGSGTDYTLTISSLQPEDFATYYCQQGNTLPWTFGQGTKVEIKAAGGGGSEVQLVESGGGLVQPGGSLRLSCAASGFTLSGDWIHWVRQAPGKGLEWLGEISAAGGYTDYADSVKGRFTISADTSKNTAYLQMNSLRAEDTAVYYCARESRVSFEAAMDYWGQGTLVTVSSAAAAEQKLISEEDLNLGGGMRGSHHHHHH
chain 2: ATDIQMTQSPSSLSASVGDRVTITCRASQDLATDVAWYQQKPGKAPKLLIYSASFLYSGVPSRFSGSGSGTDFTLTISSLQPEDFATYYCQQSEPEPYTFGQGTKVEIKAAGGGGSEVQLVESGGGLVQPGGSLRLSCAASGYSFTGYTMNWVRQAPGKGLEWVALINPYKGVSTYNQKFKDRFTISVDKSKNTAYLQMNSLRAEDTAVYYCARSGYYGDSDWYFDVWGQGTLVTVSSAAAEQKLISEEDLNLGGGMRGSHHHHHH
notes: Secreted by Bifidobacterium longum 105-A carrying plasmid p126; purified on protein L resin; also called LH31 polypeptide 1 + LH31 polypeptide 2 with SP50-L2
Q: Which “EC50, viability of HCT116 cells with T-LAKs” value [1] does the source give for B3 here?
A: 0.0084 nM

Q: Does B3 bind [2]?
A: binds

B4: EUM-H diabody-type BsAb (EpCAM×CD3 diabody-type BsAb derived from EUM-H strain) (bispecific antibody)
chain 1: ATDIQMTQSPSSLSASVGDRVTITCRASQDIRNYLNWYQQKPGKAPKLLIYYTSRLESGVPSRFSGSGSGTDYTLTISSLQPEDFATYYCQQGNTLPWTFGQGTKVEIKAAGGGGSEVQLLEQSGAELVRPGTSVKISCKASGYAFTNYWLGWVKQRPGHGLEWIGDIFPGSGNIHYNEKFKGKATLTADKSSSTAYMQLSSLTFEDSAVYFCARLRNWDEPMDYWGQGTTVTVSSAAAEQKLISEEDLNLGGGMRGSHHHHHH
chain 2: ADELVMTQSPSSLTVTAGEKVTMSCKSSQSLLNSGNQKNYLTWYQQKPGQPPKLLIYWASTRESGVPDRFTGSGSGTDFTLTISSVQAEDLAVYYCQNDYSYPLTFGAGTKLEIKAAGGGGSEVQLVESGGGLVQPGGSLRLSCAASGYSFTGYTMNWVRQAPGKGLEWVALINPYKGVSTYNQKFKDRFTISVDKSKNTAYLQMNSLRAEDTAVYYCARSGYYGDSDWYFDVWGQGTLVTVSSAAAEQKLISEEDLNLGGGMRGSHHHHHH
notes: Secreted by Bifidobacterium longum 105-A carrying pEUM-H; purified through the His tag; also called EUM-H polypeptide 1 + EUM-H polypeptide 2
Q: With B4 as the binder, how does the “EC50, cytotoxic activity on HCT116 cells with T-LAKs” value [3] read?
A: 0.0173 nM

Q: Does B4 bind [4]?
A: binds

B5: LH-PUM-H diabody-type BsAb (PSMA×CD3 diabody-type BsAb derived from LH-PUM-H strain) (bispecific antibody)
chain 1: ATDIQMTQSPSSLSASVGDRVTITCRASQDIRNYLNWYQQKPGKAPKLLIYYTSRLESGVPSRFSGSGSGTDYTLTISSLQPEDFATYYCQQGNTLPWTFGQGTKVEIKAAGGGGSQVQLVESGGGLVKPGESLRLSCAASGFTFSDYYMYWVRQAPGKGLEWVAIISDGGYYTYYSDIIKGRFTISRDNAKNSLYLQMNSLKAEDTAVYYCARGFPLLRHGAMDYWGQGTLVTVSSAAAEQKLISEEDLNLGGGMRGSHHHHHH
chain 2: ADDIQMTQSPSSLSASVGDRVTITCKASQNVDTNVAWYQQKPGQAPKSLIYSASYRYSDVPSRFSGSASGTDFTLTISSVQSEDFATYYCQQYDSYPYTFGGGTKLEIKAAGGGGSEVQLVESGGGLVQPGGSLRLSCAASGYSFTGYTMNWVRQAPGKGLEWVALINPYKGVSTYNQKFKDRFTISVDKSKNTAYLQMNSLRAEDTAVYYCARSGYYGDSDWYFDVWGQGTLVTVSSAAAEQKLISEEDLNLGGGMRGSHHHHHH
Q: With B5 as the binder, how does the “EC50, cytotoxic activity on 22Rv1 cells with T-LAKs” value [5] read?
A: 0.155 nM

B6: HL-PUM-H diabody-type BsAb (PSMA×CD3 diabody-type BsAb derived from HL-PUM-H strain) (bispecific antibody)
chain 1: ATEVQLVESGGGLVQPGGSLRLSCAASGYSFTGYTMNWVRQAPGKGLEWVALINPYKGVSTYNQKFKDRFTISVDKSKNTAYLQMNSLRAEDTAVYYCARSGYYGDSDWYFDVWGQGTLVTVSSAAGGGGSDIQMTQSPSSLSASVGDRVTITCKASQNVDTNVAWYQQKPGQAPKSLIYSASYRYSDVPSRFSGSASGTDFTLTISSVQSEDFATYYCQQYDSYPYTFGGGTKLEIKAAAEQKLISEEDLNLGGGMRGSHHHHHH
chain 2: ADQVQLVESGGGLVKPGESLRLSCAASGFTFSDYYMYWVRQAPGKGLEWVAIISDGGYYTYYSDIIKGRFTISRDNAKNSLYLQMNSLKAEDTAVYYCARGFPLLRHGAMDYWGQGTLVTVSSAAGGGGSDIQMTQSPSSLSASVGDRVTITCRASQDIRNYLNWYQQKPGKAPKLLIYYTSRLESGVPSRFSGSGSGTDYTLTISSLQPEDFATYYCQQGNTLPWTFGQGTKVEIKAAAEQKLISEEDLNLGGGMRGSHHHHHH
Q: For B6, which “EC50, cytotoxic activity on 22Rv1 cells with T-LAKs” value [5] is on record?
A: 0.233 nM

B7: LH36 diabody-type BsAb (HER2×CD3 diabody-type BsAb derived from CUM-36-1H strain) (bispecific antibody)
chain 1: ATLTPDIQMTQSPSSLSASVGDRVTITCKASQDVSIGVAWYQQKPGKAPKLLIYSASYRYTGVPSRFSGSGSGTDFTLTISSLQPEDFATYYCQQYYIYPYTFGQGTKVEIKAAGGGGSEVQLVESGGGLVQPGGSLRLSCAASGYSFTGYTMNWVRQAPGKGLEWVALINPYKGVSTYNQKFKDRFTISVDKSKNTAYLQMNSLRAEDTAVYYCARSGYYGDSDWYFDVWGQGTLVTVSSAAAEQKLISEEDLNLGGGMRGSHHHHHH
chain 2: ATDIQMTQSPSSLSASVGDRVTITCRASQDIRNYLNWYQQKPGKAPKLLIYYTSRLESGVPSRFSGSGSGTDYTLTISSLQPEDFATYYCQQGNTLPWTFGQGTKVEIKAAGGGGSEVQLVESGGGLVQPGGSLRLSCAASGFTFTDYTMDWVRQAPGKGLEWVADVNPNSGGSIYNQRFKGRFTLSVDRSKNTLYLQMNSLRAEDTAVYYCARNLGPSFYFDYWGQGTLVTVSSAAAEQKLISEEDLNLGGGMRGSHHHHHH
notes: Secreted by Bifidobacterium longum 105-A carrying pLH36-1; purified through the His tag; also called LH36 polypeptide 1 + LH36 polypeptide 2 (SP50-L2)
Q: Which results are given for B7?
A: binding result [6]: binds; binding result [7]: no binding

B8: LH36 diabody-type BsAb (HER2×CD3 diabody-type BsAb derived from CUM-36-2H strain) (bispecific antibody)
chain 1: B7 chain 1
chain 2: B7 chain 2 with T2D
notes: Secreted by Bifidobacterium longum 105-A carrying pLH36-2; purified through the His tag; also called LH36 polypeptide 1 + LH36 polypeptide 2 (SP52-L2)
Q: Does B8 bind [6]?
A: binds
